Assay results taken from PMC7700883.

Key:
[1] = target: GST-tagged ChlaDUB1_(130–401) (C345A) (Chlamydia trachomatis L2) (UniProt B0B9A0); test: BLI
[2] = target: GST-tagged ChlaDUB2_(58–339) (C282A) (Chlamydia trachomatis L2) (UniProt B0B999); test: BLI
[3] = target: ubiquitin aminomethylcoumarin (UniProt P0CG48)

Substance | Kd [1] | Kd [2] | attenuation of Ub-AMC hydrolysis activity against wild type ChlaDUB2(58-339) [3]
Lys63-linked diubiquitin (from UniProt P0CG48 1-76) (complex) | 117 µM | 88.9 µM | 
ChlaDUB2_(58–339) W92A (from UniProt B0B999 58-339) (domain or fragment) |  |  | 50%
